T1: Human FcεRIα (Fc epsilon RI alpha), His-tagged (human, UniProt P12319 26-205)
T1 construct: also called FceRIa; hFcεR1
T1 sequence (looked up): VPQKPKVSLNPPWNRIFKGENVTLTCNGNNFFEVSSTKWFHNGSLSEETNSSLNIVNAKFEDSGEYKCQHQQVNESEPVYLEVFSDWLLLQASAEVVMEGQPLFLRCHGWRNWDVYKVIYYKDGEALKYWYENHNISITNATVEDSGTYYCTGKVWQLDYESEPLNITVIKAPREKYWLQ


Legend:
[1] = molecular target: T2, HMW-MAA (high molecular weight-melanoma associated antigen) on A375 cells (UniProt Q6UVK1 30-2322); assay: flow cytometry on A375 cells, FITC goat anti-human IgG secondary
T2 construct: whole, on cells; also called CSPG4; chondroitin sulfate proteoglycan 4
T2 sequence (Q6UVK1 30-2322): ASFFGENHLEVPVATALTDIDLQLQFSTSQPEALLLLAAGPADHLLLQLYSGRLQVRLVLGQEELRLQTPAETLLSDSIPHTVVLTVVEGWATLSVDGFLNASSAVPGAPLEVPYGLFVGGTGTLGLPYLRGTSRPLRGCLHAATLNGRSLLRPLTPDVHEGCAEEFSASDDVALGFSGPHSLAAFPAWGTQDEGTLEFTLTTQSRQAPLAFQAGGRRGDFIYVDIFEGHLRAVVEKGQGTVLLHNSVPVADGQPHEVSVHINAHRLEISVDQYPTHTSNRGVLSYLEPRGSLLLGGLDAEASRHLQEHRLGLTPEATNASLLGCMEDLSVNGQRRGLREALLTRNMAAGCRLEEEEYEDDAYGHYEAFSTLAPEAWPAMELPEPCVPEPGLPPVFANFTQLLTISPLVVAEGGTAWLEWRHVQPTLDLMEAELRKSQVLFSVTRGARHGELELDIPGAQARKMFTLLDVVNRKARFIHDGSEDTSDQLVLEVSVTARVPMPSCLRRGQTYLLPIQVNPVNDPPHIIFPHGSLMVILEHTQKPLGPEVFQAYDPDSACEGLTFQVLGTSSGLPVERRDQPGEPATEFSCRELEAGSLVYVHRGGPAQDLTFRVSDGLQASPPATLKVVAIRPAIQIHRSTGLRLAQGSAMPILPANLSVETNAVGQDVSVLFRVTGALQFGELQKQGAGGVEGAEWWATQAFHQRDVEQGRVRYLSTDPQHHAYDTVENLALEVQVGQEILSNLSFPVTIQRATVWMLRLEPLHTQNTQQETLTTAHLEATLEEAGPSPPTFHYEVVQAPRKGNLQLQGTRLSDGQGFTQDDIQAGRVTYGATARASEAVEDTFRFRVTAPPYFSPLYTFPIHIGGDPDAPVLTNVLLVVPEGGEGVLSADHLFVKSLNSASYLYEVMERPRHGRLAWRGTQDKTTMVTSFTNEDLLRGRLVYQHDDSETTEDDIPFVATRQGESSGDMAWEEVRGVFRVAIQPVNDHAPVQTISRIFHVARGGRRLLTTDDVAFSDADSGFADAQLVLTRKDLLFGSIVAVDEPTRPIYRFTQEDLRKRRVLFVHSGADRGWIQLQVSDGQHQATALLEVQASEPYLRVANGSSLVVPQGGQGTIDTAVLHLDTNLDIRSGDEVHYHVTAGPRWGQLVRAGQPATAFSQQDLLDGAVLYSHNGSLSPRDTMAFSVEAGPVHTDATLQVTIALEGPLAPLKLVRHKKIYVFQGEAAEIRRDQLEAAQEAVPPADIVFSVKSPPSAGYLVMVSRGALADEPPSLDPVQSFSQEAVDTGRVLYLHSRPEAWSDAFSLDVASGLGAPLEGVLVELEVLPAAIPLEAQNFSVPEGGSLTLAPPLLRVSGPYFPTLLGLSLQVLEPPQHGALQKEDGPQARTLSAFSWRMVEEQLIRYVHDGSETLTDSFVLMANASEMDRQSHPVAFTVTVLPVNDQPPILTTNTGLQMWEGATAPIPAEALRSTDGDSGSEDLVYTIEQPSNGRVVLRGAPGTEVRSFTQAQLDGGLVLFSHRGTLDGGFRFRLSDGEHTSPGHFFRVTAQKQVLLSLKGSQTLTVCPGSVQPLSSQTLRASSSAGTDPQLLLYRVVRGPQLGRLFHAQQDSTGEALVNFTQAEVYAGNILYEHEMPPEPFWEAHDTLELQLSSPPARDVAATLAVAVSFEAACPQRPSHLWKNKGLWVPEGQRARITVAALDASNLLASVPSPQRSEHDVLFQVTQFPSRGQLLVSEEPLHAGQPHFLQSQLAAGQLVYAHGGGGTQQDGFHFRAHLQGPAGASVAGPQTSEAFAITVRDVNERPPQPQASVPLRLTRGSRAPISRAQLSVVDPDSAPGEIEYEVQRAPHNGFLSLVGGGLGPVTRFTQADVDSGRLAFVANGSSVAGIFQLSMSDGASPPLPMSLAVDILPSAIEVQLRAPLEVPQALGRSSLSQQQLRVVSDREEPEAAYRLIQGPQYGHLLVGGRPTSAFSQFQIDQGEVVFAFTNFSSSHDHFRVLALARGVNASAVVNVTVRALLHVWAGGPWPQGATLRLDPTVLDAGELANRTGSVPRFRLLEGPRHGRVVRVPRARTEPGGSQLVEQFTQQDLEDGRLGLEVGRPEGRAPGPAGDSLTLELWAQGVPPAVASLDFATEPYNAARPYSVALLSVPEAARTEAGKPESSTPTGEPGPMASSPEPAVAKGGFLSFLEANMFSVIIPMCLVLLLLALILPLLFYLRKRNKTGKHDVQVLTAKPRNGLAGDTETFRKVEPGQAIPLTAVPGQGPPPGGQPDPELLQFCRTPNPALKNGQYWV
Method: (§1) A375 cells were cultured using standard methods. When A375 cells were confluent, the cells were harvested. In brief, cells were washed with PBS before incubation with TrypLE™ at 37° C. for 10 minutes to detach the cells from the flask. Cells were resuspended in 10 mL of media and centrifuged for 3 minutes at 250 g. Cells were then resuspended in 1 mL FACS buffer and counted on the Cellometer® to determine the cell number and viability. Following this, cells were diluted to 1×10⁶ cells per mL with FACS buffer, and 100 μL of this cell suspension plated per well on a plate.
(§2) Binding of purified IGEGs to A375 cells (ATCC, Virginia, US) was assessed by flow cytometry using a Attune® NxT Acoustic Focusing Cytometer running Attune Software V3.1.2 (ThermoFisher Scientific, Loughborough, UK). […] Cells were washed and resuspended in FACS buffer and then acquired on the Attune® NxT Acoustic Focusing Cytometer. The data was analysed using FlowJo™ Software Version 10 (Becton, Dickinson and Company, New Jersey, US) and GraphPad Prism 8 (GraphPad Software, California, US).

[2] = molecular target: T3, Human CD64 (FcγRI), His-tagged (human, UniProt P12314 16-288); assay: SPR single cycle, 1:1 fit, His-tagged receptor captured, antibody as analyte
T3 construct: also called FcgRI; hFcγRI
T3 sequence (P12314 16-288 limits assumed): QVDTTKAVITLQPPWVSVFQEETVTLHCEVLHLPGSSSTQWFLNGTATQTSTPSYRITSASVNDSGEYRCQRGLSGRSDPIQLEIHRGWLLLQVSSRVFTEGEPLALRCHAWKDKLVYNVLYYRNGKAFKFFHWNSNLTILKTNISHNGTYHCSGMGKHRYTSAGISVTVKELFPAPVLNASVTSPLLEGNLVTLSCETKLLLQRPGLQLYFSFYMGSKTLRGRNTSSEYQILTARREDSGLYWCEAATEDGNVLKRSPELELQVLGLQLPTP
From the text: (§3) FcRs were captured on a CM5 sensor chip pre-coupled using a His capture kit (Cytiva, Uppsala, Sweden) using standard amine chemistry.
(§4) At the start of each cycle His-tagged Fc receptors diluted in HEPES buffered saline containing 0.05% v/v Surfactant P20 (HBS-P+) were loaded to a specified RU level (Table 7). A five point, three-fold dilution range of test antibody without regeneration between each concentration was used for each receptor tested. […] In all cases, antibodies were passed over the chip in increasing concentrations followed by a single dissociation step. Following dissociation, the chip was regenerated with two injections of Glycine pH 1.5. The signal from the reference channel Fc1 (blank) was subtracted from that of the Fc loaded with receptor to correct for differences in non-specific binding to the reference surface.

[3] = molecular target: T1, Human FcεRIα (Fc epsilon RI alpha), …; assay: as above
From the text: as §3, §4

[4] = molecular target: T4, Human CD16A 176 Val (FcγRIIIA176Val), His-tagged (human, UniProt P08637 17-208); assay: SPR single cycle, steady state fit, His-tagged receptor captured, antibody as analyte
T4 construct: also called FcγRIIIA (CD16A); hFcγRIIIa 176V
T4 sequence (P08637 17-208 F176V limits assumed): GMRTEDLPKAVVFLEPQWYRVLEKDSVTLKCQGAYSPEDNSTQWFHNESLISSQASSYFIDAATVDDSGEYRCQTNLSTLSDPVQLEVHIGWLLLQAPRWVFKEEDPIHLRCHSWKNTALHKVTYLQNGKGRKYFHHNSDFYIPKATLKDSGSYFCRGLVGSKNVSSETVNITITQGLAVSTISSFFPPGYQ
From the text: as §3, §4

[5] = molecular target: T5, Human CD16A 176 Phe (FcγRIIIA176Phe), His-tagged (human, UniProt P08637 17-208); assay: as above
T5 construct: also called hFcγRIIIa 176F
T5 sequence (P08637 17-208 limits assumed): as the sequence (P08637 17-208 F176V limits assumed) above, with V160F counted along it
From the text: as §3, §4

[6] = molecular target: T6, Human CD16B (FcγRIIIB), His-tagged (human, UniProt O75015 17-200); assay: as above
T6 construct: also called hFcγRIIIb
T6 sequence (O75015 17-200 limits assumed): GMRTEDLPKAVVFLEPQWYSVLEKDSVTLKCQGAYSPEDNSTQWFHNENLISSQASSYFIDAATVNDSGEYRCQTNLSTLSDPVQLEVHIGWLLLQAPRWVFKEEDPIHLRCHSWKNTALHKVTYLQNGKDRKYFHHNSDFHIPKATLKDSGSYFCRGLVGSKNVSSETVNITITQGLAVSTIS
From the text: as §3, §4

[7] = molecular target: T7, Human FcRn (neonatal Fc receptor) (human, UniProt P55899 24-297; P61769 21-119); assay: SPR steady state, pH 6.0, FcRn amine-coupled, antibody as analyte; pH 6.0; 31.25 nM to 2000 nM antibody over hFcRn on the chip
T7 construct: also called hFcRn
T7 sequence (P55899 24-297 limits assumed, chain 1 of 2): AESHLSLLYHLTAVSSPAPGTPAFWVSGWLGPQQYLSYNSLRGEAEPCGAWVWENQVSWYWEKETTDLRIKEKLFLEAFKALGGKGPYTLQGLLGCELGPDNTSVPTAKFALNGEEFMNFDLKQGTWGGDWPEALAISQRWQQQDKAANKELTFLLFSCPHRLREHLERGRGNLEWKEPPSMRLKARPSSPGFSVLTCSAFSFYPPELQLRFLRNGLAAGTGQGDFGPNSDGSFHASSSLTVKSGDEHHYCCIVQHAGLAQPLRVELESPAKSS
T7 sequence (P61769 21-119 limits assumed, chain 2 of 2): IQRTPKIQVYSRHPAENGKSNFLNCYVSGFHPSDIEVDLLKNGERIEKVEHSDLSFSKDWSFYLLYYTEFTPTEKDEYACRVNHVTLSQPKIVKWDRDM
Method: (§5) Antibodies were passed over the chip with increasing concentrations at a flow rate of 30 μl/min and at 25° C. The injection time was 40 s per concentration and the dissociation time was 75 s. […] Interactions were analysed using a steady state model (see FIGS. 19a to 19d for example data).

[8] = molecular target: T5, Human CD16A 176 Phe (FcγRIIIA176Phe), …; assay: SPR single cycle, His-tagged receptor captured, antibody as analyte
From the text: as §3, §4

[9] = molecular target: T6, Human CD16B (FcγRIIIB), His-tagged; assay: as above
From the text: as §3, §4

[10] = molecular target: T2, HMW-MAA (high molecular weight-melanoma …); assay: flow cytometry on A375 cells, FITC goat anti-human IgE secondary
Method: as §1, §2

[11] = molecular target: T7, Human FcRn (neonatal Fc receptor); assay: SPR (Biacore T200), hFcRn amine-coupled to CM5 chip, antibody as analyte 31.25-2000 nM, pH 6.0, raw sensorgrams
Method: as §5

[12] = molecular target: T3, Human CD64 (FcγRI), His-tagged; assay: SPR (Biacore T200) single cycle kinetics, His-tagged FcγRI captured on anti-His chip, antibody as analyte 0.411-33.33 nM
From the text: as §3, §4

[13] = molecular target: T4, Human CD16A 176 Val (FcγRIIIA176Val), …; assay: SPR (Biacore T200) single cycle, His-tagged FcγRIIIA176Val captured on anti-His chip, antibody as analyte, raw sensorgrams
From the text: as §3, §4

[14] = molecular target: T7, Human FcRn (neonatal Fc receptor); assay: SPR (Biacore T200), hFcRn amine-coupled to CM5 chip, antibody as analyte 31.25-2000 nM, pH 6.0, raw sensorgrams [Continued]
Method: as §5

Binder | binding result [1] | Kd [2] [nM] | Kd [3] [nM] | Kd [4] [nM] | Kd [5] [nM] | Kd [6] [nM] | Kd [7] [nM] | binding result [8] | binding result [9] | binding result [10] | binding result [11] | binding result [12] | binding result [13] | binding result [14]
HMW-MAA_IGEG (HMW-MAA IgE IgG-Fc) (antibody, also called CH IGEG) heavy: not shown light: DIQLTQSPSFLSASVGDRVTITCKASQNVDTNVAWYQQKPGKAPKPLLFSASYRYTGVPSRFSGSGSGTDFTLTISSLQPEDFATYFCQQYNSYPLTFGGGTKVEIKRTVAAPSVFIFPPSDEQLKSGTASVVCLLNNFYPREAKVQWKVDNALQSGNSQESVTEQDSKDSTYSLSSTLTLSKADYEKHKVYACEVTHQGLSSPVTKSFNRGEC | binds | 1.63 | 0.599 | 386 | 665 | 1480 | 1020 |  |  |  |  |  |  | 
HMW-MAA_IgE (antibody, also called HMW-MAA IgE-WT; anti-HMW-MAA IgE) heavy: EVQLVQSGGGLVQPGGSLKLSCAVSGFTFSNYWMNWVRQAPGKGLEWVGEIRLKSNNFGRYYAESVKGRFTISRDDSKNTAYLQMNSLKTEDTAVYYCTSYGNYVGHYFDHWGQGTLVTVSSASTQSPSVFPLTRCCKNIPSNATSVTLGCLATGYFPEPVMVTWDTGSLNGTTMTLPATTLTLSGHYATISLLTVSGAWAKQMFTCRVAHTPSSTDWVDNKTFSVCSRDFTPPTVKILQSSCDGGGHFPPTIQLLCLVSGYTPGTINITWLEDGQVMDVDLSTASTTQEGELASTQSELTLSQKHWLSDRTYTCQVTYQGHTFEDSTKKCADSNPRGVSAYLSRPSPFDLFIRKSPTITCLVVDLAPSKGTVNLTWSRASGKPVNHSTRKEEKQRNGTLTVTSTLPVGTRDWIEGETYQCRVTHPHLPRALMRSTTKTSGPRAAPEVYAFATPEWPGSRDKRTLACLIQNFMPEDISVQWLHNEVQLPDARHSTTQPRKTKGSGFFVFSRLEVTRAEWEQKDEFICRAVHEAASPSQTVQRAVSVNPGK light: DIQLTQSPSFLSASVGDRVTITCKASQNVDTNVAWYQQKPGKAPKPLLFSASYRYTGVPSRFSGSGSGTDFTLTISSLQPEDFATYFCQQYNSYPLTFGGGTKVEIKRTVAAPSVFIFPPSDEQLKSGTASVVCLLNNFYPREAKVQWKVDNALQSGNSQESVTEQDSKDSTYSLSSTLTLSKADYEKHKVYACEVTHQGLSSPVTKSFNRGEC |  |  | 0.508 |  |  |  |  | no binding (tested: 8000 nM) | no binding (tested: 8000 nM) | binds | no binding (tested: 2000 nM) | no binding (tested: 33.33 nM) | no binding (tested: 3e-6 M (top point of FIG. 17D)) | 
HMW-MAA_IGEG-C220S-dFcRn (antibody) heavy: EVQLVQSGGGLVQPGGSLKLSCAVSGFTFSNYWMNWVRQAPGKGLEWVGEIRLKSNNFGRYYAESVKGRFTISRDDSKNTAYLQMNSLKTEDTAVYYCTSYGNYVGHYFDHWGQGTLVTVSSASTQSPSVFPLTRCCKNIPSNATSVTLGCLATGYFPEPVMVTWDTGSLNGTTMTLPATTLTLSGHYATISLLTVSGAWAKQMFTCRVAHTPSSTDWVDNKTFSVCSRDFTPPTVKILQSSCDGGGHFPPTIQLLCLVSGYTPGTINITWLEDGQVMDVDLSTASTTQEGELASTQSELTLSQKHWLSDRTYTCQVTYQGHTFEDSTKKCADSNPRGVSAYLSRPSPFDLFIRKSPTITCLVVDLAPSKGTVNLTWSRASGKPVNHSTRKEEKQRNGTLTVTSTLPVGTRDWIEGETYQCRVTHPHLPRALMRSTTKTSGPRAAPEVYAFATPEWPGSRDKRTLACLIQNFMPEDISVQWLHNEVQLPDARHSTTQPRKTKGSGFFVFSRLEVTRAEWEQKDEFICRAVHEAASPSQTVQRAVSVNPGKRSEPKSSDKTHTCPPCPAPELLGGPSVFLFPPKPKDTLMASRTPEVTCVVVDVSHEDPEVKFNWYVDGVEVHNAKTKPREEQYNSTYRVVSVLTVLAQDWLNGKEYKCKVSNKALPAPIEKTISKAKGQPREPQVYTLPPSREEMTKNQVSLTCLVKGFYPSDIAVEWESNGQPENNYKTTPPVLDSDGSFFLYSKLTVDKSRWQQGNVFSCSVMHEALHNAYTQKSLSLSPGK light: DIQLTQSPSFLSASVGDRVTITCKASQNVDTNVAWYQQKPGKAPKPLLFSASYRYTGVPSRFSGSGSGTDFTLTISSLQPEDFATYFCQQYNSYPLTFGGGTKVEIKRTVAAPSVFIFPPSDEQLKSGTASVVCLLNNFYPREAKVQWKVDNALQSGNSQESVTEQDSKDSTYSLSSTLTLSKADYEKHKVYACEVTHQGLSSPVTKSFNRGEC | binds | 2.18 | 0.535 | 601 | 1160 | 2780 |  |  |  |  |  |  |  | no binding (tested: 2000 nM)
HMW-MAA_IGEG-C220S (HMW-MAA IgE-IgG-Fc C220S) (antibody) heavy: not shown light: DIQLTQSPSFLSASVGDRVTITCKASQNVDTNVAWYQQKPGKAPKPLLFSASYRYTGVPSRFSGSGSGTDFTLTISSLQPEDFATYFCQQYNSYPLTFGGGTKVEIKRTVAAPSVFIFPPSDEQLKSGTASVVCLLNNFYPREAKVQWKVDNALQSGNSQESVTEQDSKDSTYSLSSTLTLSKADYEKHKVYACEVTHQGLSSPVTKSFNRGEC | binds | 1.67 | 0.493 | 400 | 775 | 1870 | 1050 |  |  |  |  |  |  | 
HMW-MAA_IGEG-dFcRn (antibody, human IgG1, kappa) heavy: EVQLVQSGGGLVQPGGSLKLSCAVSGFTFSNYWMNWVRQAPGKGLEWVGEIRLKSNNFGRYYAESVKGRFTISRDDSKNTAYLQMNSLKTEDTAVYYCTSYGNYVGHYFDHWGQGTLVTVSSASTQSPSVFPLTRCCKNIPSNATSVTLGCLATGYFPEPVMVTWDTGSLNGTTMTLPATTLTLSGHYATISLLTVSGAWAKQMFTCRVAHTPSSTDWVDNKTFSVCSRDFTPPTVKILQSSCDGGGHFPPTIQLLCLVSGYTPGTINITWLEDGQVMDVDLSTASTTQEGELASTQSELTLSQKHWLSDRTYTCQVTYQGHTFEDSTKKCADSNPRGVSAYLSRPSPFDLFIRKSPTITCLVVDLAPSKGTVNLTWSRASGKPVNHSTRKEEKQRNGTLTVTSTLPVGTRDWIEGETYQCRVTHPHLPRALMRSTTKTSGPRAAPEVYAFATPEWPGSRDKRTLACLIQNFMPEDISVQWLHNEVQLPDARHSTTQPRKTKGSGFFVFSRLEVTRAEWEQKDEFICRAVHEAASPSQTVQRAVSVNPGKRSEPKSCDKTHTCPPCPAPELLGGPSVFLFPPKPKDTLMASRTPEVTCVVVDVSHEDPEVKFNWYVDGVEVHNAKTKPREEQYNSTYRVVSVLTVLAQDWLNGKEYKCKVSNKALPAPIEKTISKAKGQPREPQVYTLPPSREEMTKNQVSLTCLVKGFYPSDIAVEWESNGQPENNYKTTPPVLDSDGSFFLYSKLTVDKSRWQQGNVFSCSVMHEALHNAYTQKSLSLSPGK light: DIQLTQSPSFLSASVGDRVTITCKASQNVDTNVAWYQQKPGKAPKPLLFSASYRYTGVPSRFSGSGSGTDFTLTISSLQPEDFATYFCQQYNSYPLTFGGGTKVEIKRTVAAPSVFIFPPSDEQLKSGTASVVCLLNNFYPREAKVQWKVDNALQSGNSQESVTEQDSKDSTYSLSSTLTLSKADYEKHKVYACEVTHQGLSSPVTKSFNRGEC | binds | 2.02 | 0.556 | 535 | 960 | 2030 |  |  |  |  |  |  |  | no binding (tested: 2000 nM)
